Kd data for one sequence are collected here from the Immune Epitope Database (IEDB).

A value given as a limit tells only on which side of the number the result lay.

The target of one test is HLA-B*40:01. The test is described as follows: IEDB peptide-MHC binding, purified MHC/competitive/fluorescence; filed as Kd, often an IC50 or EC50 that approximates it; ≥ and ≤ were set here for values at or beyond the usual limits of such assays. Conditions: source organism: Vibrio cholerae 2740-80.
The target of another test is HLA-B*08:01. The description is as above. Conditions: source organism: Vibrio cholerae 2740-80.
The target in a further test is HLA-B*51:01. Described as above. The settings on record: source organism: Vibrio cholerae 2740-80.
The target in another test is HLA-B*14:02. The test is described as above. The settings on record: source organism: Vibrio cholerae 2740-80.
The target of the next test is HLA-B*53:01. The description is as above. Conditions: source organism: Vibrio cholerae 2740-80.
The next test concerns the target HLA-A*01:01. The description is as above. The settings on record: source organism: Vibrio cholerae 2740-80.
In another test the target is HLA-A*66:01. The test is described as above. The settings on record: source organism: Vibrio cholerae 2740-80.
Another test concerns the target HLA-A*30:02. The description is as above. The settings on record: source organism: Vibrio cholerae 2740-80.
A further test addresses HLA-B*44:02. Described as above. The settings on record: source organism: Vibrio cholerae 2740-80.
Another test addresses HLA-B*07:02. The test is described as above. Conditions: source organism: Vibrio cholerae 2740-80.
Another test addresses HLA-B*58:01. The test is described as above. The settings on record: source organism: Vibrio cholerae 2740-80.
A further test has as its target HLA-B*27:05. The test is described as above. Conditions: source organism: Vibrio cholerae 2740-80.
The next test concerns the target HLA-A*30:01. The description is as above. The settings on record: source organism: Vibrio cholerae 2740-80.
A further test deals with HLA-A*11:01. The description is as above. Conditions: source organism: Vibrio cholerae 2740-80.
Another test has as its target HLA-A*02:16. The test is described as follows: IEDB peptide-MHC binding, purified MHC/direct/fluorescence; filed as Kd, often an IC50 or EC50 that approximates it; ≥ and ≤ were set here for values at or beyond the usual limits of such assays. The settings on record: source organism: Vibrio cholerae V52.
A further test has as its target HLA-A*24:03. The description is as above. Conditions: source organism: Vibrio cholerae V52.
The target in another test is HLA-B*18:01. The test is described as above. Conditions: source organism: Vibrio cholerae V52.
A further test addresses HLA-B*57:01. The description is as above. The settings on record: source organism: Vibrio cholerae V52.
The target of the next test is HLA-B*15:01. The test is described as above. Conditions: source organism: Vibrio cholerae V52.
The next test deals with HLA-A*68:02. The test is described as above. The settings on record: source organism: Vibrio cholerae V52.
For the next test, the target named is HLA-A*03:01. Described as above. Conditions: source organism: Vibrio cholerae V52.
Another test has as its target HLA-A*02:12. The test is described as above. The settings on record: source organism: Vibrio cholerae V52.
Another test concerns the target HLA-A*29:02. The description is as above. Conditions: source organism: Vibrio cholerae V52.
Another test addresses HLA-A*02:03. The description is as above. Conditions: source organism: Vibrio cholerae V52.

Take MGMEQTMSV: the Kd in the test with HLA-B*40:01, with HLA-B*08:01, with HLA-B*51:01, in the test with HLA-B*14:02, with HLA-B*53:01 and with HLA-A*01:01 was no less than 5 µM throughout. Besides, the Kd with HLA-A*66:01, with HLA-A*30:02, with HLA-B*44:02, in the test with HLA-B*07:02, with HLA-B*58:01 and in the test with HLA-B*27:05 was no less than 5 µM in each case. Besides, the equilibrium dissociation constant (Kd) (usually a measure of binding affinity in units of concentration) is no less than 5 µM in the test with HLA-A*30:01; no less than 5 µM with HLA-A*11:01; no less than 20 µM with HLA-A*02:16; no less than 20 µM with HLA-A*24:03; no less than 20 µM with HLA-B*18:01; no less than 20 µM with HLA-B*57:01. Besides, the Kd with HLA-B*15:01 is no less than 20 µM; with HLA-A*68:02, no more than 0.001 µM; in the test with HLA-A*03:01, no less than 20 µM; with HLA-A*02:12, no less than 20 µM; with HLA-A*29:02, no less than 20 µM; with HLA-A*02:03, no less than 20 µM.
